The source of these data is publication PMC6411835 (Nucleic Acids Research, 2018).

B1: Zip2^499–704 (domain or fragment)
chain: ENKCIAVNENKVIENQKVIQSLCKNSHLDLIEQSYFGECDFIINHSTCVYKIQASRFMQLRNNGSLHYDKAVNDLLTEFQRVIIIVEFSEIIQDVDPDLFWKIKLYLLNSRVDVFFIHETTDFFIDWMKYFIARWAFSYNDEKEKNIANADILLDLGFNILLVRKIFQTYSLEEFFMAIIKEESKAVKMLTVSQMTRLKKLLTLEW
B2: His6-Spo16 (natural protein)
chain: SEFFWDVQKIQEISNVEEHSVVKCVTVNTSRLISQLNEELQDEESGVNFIVTQLQLLINNVYEKIQKSPGVPAHRSLMINLNFTRLKFSIAYWDILLERSLDLINGPSKTGARYFITEVTPVDRSRYVENNQYFLAFKANQRLTRNSVDMDEFIDFEILIKQIIFDLFKKNGIPDQDFEAILSRFHNLESLVVAFNE

The assay “His6-Spo16” concerns the target B2. The assay is described as follows: SEC-MALS. For orientation: In gel filtration, larger molecules generally elute earlier.
The target in the assay “Zip2^499–704” is B1. As to the kind of experiment: co-purification after co-expression.
Assay [1] addresses T1, surface-lysine methylated Zip2^499–704 (S. cerevisiae, UniProt P53061 499-704).
T1 sequence: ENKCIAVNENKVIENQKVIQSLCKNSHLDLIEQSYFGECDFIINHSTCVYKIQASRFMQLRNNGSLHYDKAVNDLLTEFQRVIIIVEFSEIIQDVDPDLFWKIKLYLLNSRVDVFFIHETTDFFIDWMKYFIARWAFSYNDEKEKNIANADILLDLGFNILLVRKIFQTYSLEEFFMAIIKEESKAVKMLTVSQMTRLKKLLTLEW
The assay is described as follows: crystal structure.

As a reminder, the stoichiometry N is a count of units in the complex or per binding partner. B1: the “stoichiometry N” value with His6-Spo16 turned out to be 1.

As for B2, the binding result with Zip2^499–704 was “binds”.

B3: surface-lysine methylated His6-Spo16 (natural protein)
chain: SEFFWDVQKIQEISNVEEHSVVKCVTVNTSRLISQLNEELQDEESGVNFIVTQLQLLINNVYEKIQKSPGVPAHRSLMINLNFTRLKFSIAYWDILLERSLDLINGPSKTGARYFITEVTPVDRSRYVENNQYFLAFKANQRLTRNSVDMDEFIDFEILIKQIIFDLFKKNGIPDQDFEAILSRFHNLESLVVAFNE
modifications: surface lysine residues dimethylated (dimethyllysine)
With B3, in assay [1], the binding result is “binds”.
